Results: patent US20210054071A1 (NANJING LEGEND BIOTECH, published 2021)
Read-outs that look alike come from different tables or passages of the source. One block for each binder: values may come before it.

Columns and labels:
[1] = target: T1, murine TIGIT expressed on CHO-K1 cells (murine, UniProt P86176 29-249); assay: FACS, CHO-K1 cells expressing murine TIGIT
T1 construct: whole, on cells; also called CHO/mouse TIGIT; mouse TIGIT expressed on CHO cells
T1 sequence (looked up): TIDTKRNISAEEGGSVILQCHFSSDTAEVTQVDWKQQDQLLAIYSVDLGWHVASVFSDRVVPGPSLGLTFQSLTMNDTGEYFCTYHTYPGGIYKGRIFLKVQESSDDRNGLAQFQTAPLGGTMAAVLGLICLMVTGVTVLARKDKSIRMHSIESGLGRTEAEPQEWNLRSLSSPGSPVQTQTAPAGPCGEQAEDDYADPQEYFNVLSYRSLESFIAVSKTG

[2] = target: T2, human TIGIT expressed on CHO-K1 cells (human, UniProt Q495A1 22-244); assay: FACS competition, biotinylated CD155-Fc on CHO/human TIGIT cells
T2 construct: also called CHO/human TIGIT cells; CHO-TIGIT cells
T2 sequence: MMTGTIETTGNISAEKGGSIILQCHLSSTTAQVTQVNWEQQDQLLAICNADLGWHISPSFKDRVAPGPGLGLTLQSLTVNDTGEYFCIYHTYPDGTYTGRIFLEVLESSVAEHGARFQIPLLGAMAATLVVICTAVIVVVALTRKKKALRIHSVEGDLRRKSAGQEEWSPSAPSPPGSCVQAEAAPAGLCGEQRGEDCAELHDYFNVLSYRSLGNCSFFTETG

[3] = target: T2, human TIGIT expressed on CHO-K1 cells; assay: FACS, CHO-K1 cells expressing human TIGIT
murine TIGIT-Fc = target: T3, murine TIGIT-Fc (murine, UniProt P86176 29-148, limits assumed); assay: FACS competition, murine TIGIT-Fc binding to CT26 cells (murine CD155)
T3 construct: not shown: Fc part, detected with a secondary antibody against human Fc
T3 sequence (looked up): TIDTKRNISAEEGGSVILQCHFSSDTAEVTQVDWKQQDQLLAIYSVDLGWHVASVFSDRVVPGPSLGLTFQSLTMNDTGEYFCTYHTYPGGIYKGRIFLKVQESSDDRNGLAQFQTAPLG

[4] = target: T4, TIGIT on TIGIT effector cells (UniProt Q495A1 22-244, limits assumed); assay: cell-based or functional assay
T4 sequence (looked up): T2 sequence

PD-1 expressed on cells [5] = target: T5, PD-1 expressed on cells (UniProt Q15116 25-288, limits assumed); assay: cell-based or functional assay
PD-1 expressed on cells [6] = target: T5, PD-1 expressed on cells; assay: FACS, CHO-PD-1 cells
PD-1 expressed on cells [7] = target: T5, PD-1 expressed on cells; assay: FACS competition, PD-L1 binding to CHO-PD-1 cells
[8] = target: T6, human PD-1 (Acrobiosystems) (human, UniProt Q15116 25-167); assay: SPR as in Example 2
T6 construct: bought

[9] = target: T7, mouse TIGIT-His protein (Acrobiosystems) (mouse, UniProt P86176 29-148, limits assumed); assay: SPR as in Example 2
T7 construct: bought
T7 sequence (looked up): T3 sequence (looked up)

[10] = target: T4, TIGIT on TIGIT effector cells; assay: cell-based or functional assay; remark: listed apart in the source
[11] = target: T8, cynomolgus TIGIT expressed on CHO-K1 cells (cynomolgus, UniProt A0A7N9I9V4 89-312); assay: FACS, CHO-K1 cells expressing cynomolgus TIGIT
T8 construct: whole, on cells

[12] = target: T4, TIGIT on TIGIT effector cells; assay: cell-based or functional assay; remark: listed apart in the source
[13] = target: T2, human TIGIT expressed on CHO-K1 cells; assay: FACS competition, CD155 binding to CHO-TIGIT cells
[14] = target: T4, TIGIT on TIGIT effector cells; assay: cell-based or functional assay; remark: listed apart in the source
[15] = target: T8, cynomolgus TIGIT expressed on CHO-K1 …; assay: FACS, CHO-K1 cells expressing cynomolgus TIGIT; remark: listed apart in the source
[16] = target: T2, human TIGIT expressed on CHO-K1 cells; assay: FACS, CHO-TIGIT cells
[17] = target: T2, human TIGIT expressed on CHO-K1 cells; assay: FACS competition, biotinylated CD155-Fc on CHO/human TIGIT cells; remark: listed apart in the source
[18] = target: T2, human TIGIT expressed on CHO-K1 cells; assay: FACS competition, CD155 binding to CHO-TIGIT cells; remark: listed apart in the source
[19] = target: T2, human TIGIT expressed on CHO-K1 cells; assay: FACS, CHO-K1 cells expressing human TIGIT; remark: listed apart in the source
[20] = target: T2, human TIGIT expressed on CHO-K1 cells; assay: FACS, CHO-TIGIT cells; remark: listed apart in the source
[21] = target: T9, human TIGIT-His protein (Acrobiosystems) (human, UniProt Q495A1 22-141); assay: SPR (BIAcore T200), target amine-coupled to CM5 chip
T9 construct: Bought; Genbank NP_776160
T9 sequence: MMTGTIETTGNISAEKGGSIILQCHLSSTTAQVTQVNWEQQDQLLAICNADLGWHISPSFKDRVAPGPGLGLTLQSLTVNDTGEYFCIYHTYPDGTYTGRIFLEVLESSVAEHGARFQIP

[22] = target: T10, cynomolgus TIGIT-His protein (Acrobiosystems) (cynomolgus, UniProt A0A7N9I9V4 89-209); assay: as above
T10 construct: bought

[23] = target: T9, human TIGIT-His protein (Acrobiosystems); assay: as above; remark: listed apart in the source
[24] = target: T10, cynomolgus TIGIT-His protein …; assay: as above; remark: listed apart in the source

T10 sequence (A0A7N9I9V4 entry or part of it): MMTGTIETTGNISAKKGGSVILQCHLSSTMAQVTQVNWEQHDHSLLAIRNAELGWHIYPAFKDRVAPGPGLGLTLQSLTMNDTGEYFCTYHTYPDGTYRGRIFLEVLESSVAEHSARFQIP
T5 sequence (Q15116 25-288 limits assumed): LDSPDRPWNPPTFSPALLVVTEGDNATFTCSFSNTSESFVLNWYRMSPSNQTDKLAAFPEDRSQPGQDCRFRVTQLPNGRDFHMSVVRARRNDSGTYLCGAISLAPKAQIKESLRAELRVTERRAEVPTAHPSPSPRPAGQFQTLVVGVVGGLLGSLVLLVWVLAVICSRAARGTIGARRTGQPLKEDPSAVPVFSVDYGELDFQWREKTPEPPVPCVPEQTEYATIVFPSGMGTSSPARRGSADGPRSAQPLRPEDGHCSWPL
T8 sequence (A0A7N9I9V4 entry or part of it): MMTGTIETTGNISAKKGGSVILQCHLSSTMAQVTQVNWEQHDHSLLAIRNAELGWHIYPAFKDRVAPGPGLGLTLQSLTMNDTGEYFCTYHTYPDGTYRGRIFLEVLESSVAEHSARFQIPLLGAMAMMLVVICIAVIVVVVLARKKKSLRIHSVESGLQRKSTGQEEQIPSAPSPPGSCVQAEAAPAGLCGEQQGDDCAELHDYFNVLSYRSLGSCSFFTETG
T6 sequence (Q15116 25-167 limits assumed): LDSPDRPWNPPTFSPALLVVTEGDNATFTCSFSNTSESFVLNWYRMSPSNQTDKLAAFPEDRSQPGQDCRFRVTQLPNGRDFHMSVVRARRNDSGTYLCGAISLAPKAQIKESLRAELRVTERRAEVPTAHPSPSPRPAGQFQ

B1: 10A7 mAb (antibody, human IgG1, kappa, V domains shown)
VH: EVQLVESGGGLTQPGKSLKLSCEASGFTFSSFTMHWVRQSPGKGLEWVAFIRSGSGIVFYADAVRGRFTISRDNAKNLLFLQMNDLKSEDTAMYYCARRPLGHNTFDSWGQGTLVTVSS
VL: DIVMTQSPSSLAVSPGEKVTMTCKSSQSLYYSGVKENLLAWYQQKPGQSPKLLIYYASIRFTGVPDRFTGSGSGTDYTLTITSVQAEDMGQYFCQQGINNPLTFGDGTKLEIKR
- EC50 [1]: 0.709 nM
- EC50 [2]: 5.27 nM
- EC50 [3]: 4.06 nM
- EC50 (murine TIGIT-Fc): 71.3 nM

B3: 22G2 (IgG1) mAb (antibody, V domains shown)
VH: QVQLQESGPGLVKPSETLSLTCTVSGGSVSSGIYYWSWIRQPPGKGLEWIGYIYYSGSTNYNPSLKSRVTISVDTSKNQFSLKLSSVTAADTAVYYCARDYYVSGNYYNVDYYFFGVDVWGQGTTVTVSS
VL: EIVLTQSPATLSLSPGERATLSCRASQSVSSYLAWYQQKPGQAPRLLIYDASNRATGIPARFSGSGSGTDFTLTISSLEPEDFAVYYCQQRSNWPPLFTFGPGTKVDIKR
notes: also called 22G2 (IgG1) (anti-TIGIT)
- TIGIT Reporter assay EC50 [4]: 4.65 nM
- IL-2 release assay EC50 [10]: 3.07 nM
- Reporter assay EC50 [10]: 3.04 nM
- EC50 [11]: 1.12 nM
- TIGIT/CD155 blockade reporter assay, EC50 [12]: 7.92 nM
- TIGIT/CD155 blockade reporter assay, Signal span [12]: 108
- EC50 [13]: 1.11 nM
- TIGIT IL-2 release EC50 [14]: 2.26 nM
- TIGIT Reporter assay EC50 [14]: 6.01 nM
- EC50 [15]: 0.604 nM
- EC50 [16]: 1.6 nM
- EC50 [2]: 2.7 nM
- EC50 [17]: 1.94 nM
- EC50 [3]: 1.14 nM
- EC50 [18]: 2.31 nM
- EC50 [19]: 0.494 nM
- EC50 [20]: 2.46 nM
- Kd [21]: 0.12 nM
- koff [21]: 0.00016 s⁻¹
- kon [21]: 1.4e+06 M⁻¹ s⁻¹
- Kd [22]: 4.1 nM
- koff [22]: 0.0056 s⁻¹
- kon [22]: 1.3e+06 M⁻¹ s⁻¹
- Kd [23]: 0.19 nM
- koff [23]: 0.00027 s⁻¹
- kon [23]: 1.4e+06 M⁻¹ s⁻¹
- Kd [24]: 3.4 nM
- koff [24]: 0.0068 s⁻¹
- kon [24]: 2e+06 M⁻¹ s⁻¹

Second part, the binder after the results:

- TIGIT IL-2 release EC50 [4]: 0.778 nM
- TIGIT Reporter assay EC50 [4]: 7.81 nM
- PD-1 cell based assay EC50 (PD-1 expressed on cells [5]): 8.51 nM
- EC50 (PD-1 expressed on cells [6]): 6.31 nM
- EC50 (PD-1 expressed on cells [7]): 8.68 nM
- Kd [8]: 4 nM
- Kd [9]: 0.5 nM
B2: BTP-11 (bispecific antibody, human IgG4 S228P, kappa)
heavy: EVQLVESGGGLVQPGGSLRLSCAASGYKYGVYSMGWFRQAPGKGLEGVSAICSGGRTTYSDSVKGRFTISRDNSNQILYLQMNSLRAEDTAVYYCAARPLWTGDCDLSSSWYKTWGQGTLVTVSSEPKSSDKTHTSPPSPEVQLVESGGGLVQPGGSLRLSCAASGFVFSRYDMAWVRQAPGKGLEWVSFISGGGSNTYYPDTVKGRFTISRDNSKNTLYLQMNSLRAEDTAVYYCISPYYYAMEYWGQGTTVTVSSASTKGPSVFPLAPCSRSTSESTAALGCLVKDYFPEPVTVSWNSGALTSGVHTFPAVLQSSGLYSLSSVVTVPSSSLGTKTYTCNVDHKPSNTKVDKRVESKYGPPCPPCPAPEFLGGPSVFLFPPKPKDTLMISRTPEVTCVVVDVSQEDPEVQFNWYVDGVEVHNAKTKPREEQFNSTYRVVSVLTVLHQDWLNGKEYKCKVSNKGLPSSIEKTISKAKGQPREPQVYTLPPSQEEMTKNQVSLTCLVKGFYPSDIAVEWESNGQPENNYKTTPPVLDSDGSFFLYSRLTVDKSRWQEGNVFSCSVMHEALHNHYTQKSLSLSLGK
light: DIQMTQSPSSVSASVGDRVTITCKASQDVDTAVAWYQQKPGKAPKLLIYWASTRHTGVPSRFSGSGSGTDFTLTISSLQPEDFATYYCQQYSTFPWTFGGGTKVEIKRTVAAPSVFIFPPSDEQLKSGTASVVCLLNNFYPREAKVQWKVDNALQSGNSQESVTEQDSKDSTYSLSSTLTLSKADYEKHKVYACEVTHQGLSSPVTKSFNRGEC
notes: AS19584VH28 - mutated hIgG1 hinge - PD1-BM-min heavy chain (IgG4); also called BTP-11 (IgG4); PD-1×TIGIT BABP

- PD-1 cell based assay EC50 (PD-1 expressed on cells [5]): 1.21 nM
- EC50 (PD-1 expressed on cells [6]): 1.72 nM
- EC50 (PD-1 expressed on cells [7]): 1.51 nM
- Kd [8]: 1.2 nM
B4: PD1-BM-min (IgG4) (antibody, V domains shown)
VH: EVQLVESGGGLVQPGGSLRLSCAASGFVFSRYDMAWVRQAPGKGLEWVSFISGGGSNTYYPDTVKGRFTISRDNSKNTLYLQMNSLRAEDTAVYYCISPYYYAMEYWGQGTTVTVSS
VL: DIQMTQSPSSVSASVGDRVTITCKASQDVDTAVAWYQQKPGKAPKLLIYWASTRHTGVPSRFSGSGSGTDFTLTISSLQPEDFATYYCQQYSTFPWTFGGGTKVEIKR
notes: anti-PD-1 monoclonal antibody, human IgG4 Fc
